Data published in article PMC4686876.
Read-outs that look alike come from different tables or passages of the source.

Key:
[1] = biological target: T1, interferon-gamma (IFNγ) (human) (UniProt P01579); test: SPR; conditions: SPR (BIAcore T200, biotinylated aptamer on SA chip), 1x PBS (1 mM KH2PO4, 3 mM Na2HPO4) with 205 mM NaCl final, 0.05% NP-40, pH 7.4, 25 °C, IFNγ 1.25-50 nM
T1 sequence: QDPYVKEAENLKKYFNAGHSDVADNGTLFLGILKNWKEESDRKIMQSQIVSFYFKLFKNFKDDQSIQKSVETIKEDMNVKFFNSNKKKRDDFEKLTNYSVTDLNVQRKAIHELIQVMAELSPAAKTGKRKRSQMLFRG

[2] = biological target: T1, interferon-gamma (IFNγ) (human); conditions: N = unnatural base Ds at positions 18, 29, 40; SPR (BIAcore T200, biotinylated aptamer on SA chip), 1x PBS (1 mM KH2PO4, 3 mM Na2HPO4) with 205 mM NaCl final, 0.05% NP-40, pH 7.4, 25 °C; IFNγ 1.25-50 nM; cited from earlier work

## CCCGCCCGGGTCCGCGAAGCGGTAGGTNTGGGCTAGGCNGCTGGCGGGCGCGAAGCG [aptamer 57mhGC]
[1]; N = unnatural base Ds at positions 28, 39
  Kd: 0.033 nM

## TCCACTCGGGTCATTTANTAATGTAGGTNTGGGCTAGGCNGCTAGTGGA [aptamer 49]
[2]
  Kd: 0.046 nM
[1]; N = unnatural base Ds at positions 18, 29, 40
  Kd: 0.046 nM
